Results on 2 molecules are retold here after patent US7094554 (University of Texas, dated 2006).

For assay [1], the target named is T1, Cry1Ab toxin (trypsinized 60 kD toxin) (Bacillus thuringiensis, UniProt P0A370 29-620, limits assumed, radioiodinated (125I, chloramine T) where used as labelled ligand).
T1 construct: domain: soluble trypsinized 60 kD toxin; also called Cry lAb
The assay is described as follows: competition ligand blot, 125I-Cry1Ab with unlabeled Cry1Ab on the 32 kD protein, gamma counting.

Assay [2] concerns the target T1, Cry1Ab toxin (trypsinized 60 kD toxin). The assay is described as follows: blot of E. coli lysate incubated with Cry1Ab toxin, then anti-toxin antiserum.

B1: PBW-866 expressed protein (BT-R2 aa 1210-1496), 32 kD (receptor)
chain: EEGKEFEVTIRATDGGTEPRSYSTDSTITVLFVPTLGDPIFQDNTYSVAFFEKEVGLTERFSLPHAEDPKNKLCTDDCHDIYYRIFGGVDYEPFDLDPVTNVIFLKSELDRETTATHVVQVAASNSPTGGGIPLPGSLLTVTVTVREADPRPVFEQRLYTAGISTSDNINRELLTVRATHSENAQLTYTIEDGSMAVDSTLEAVKDSAFHLNAQTGVLILRIQPTASMQGMFEFNVIATDPDEKTDTAEVKVYLISSQNRVSFIFLNDVETVESNRDFIAETFSVGF
notes: also called 32 kD protein
Molecule B1 showed a dissociation constant Kd in assay [1] of roughly 17 nM.

B2: PBW-421 expressed protein (BT-R2 aa 1367-1496), 21 kD (receptor)
chain: LYTAGISTSDNINRELLTVRATHSENAQLTYTIEDGSMAVDSTLEAVKDSAFHLNAQTGVLILRIQPTASMQGMFEFNVIATDPDEKTDTAEVKVYLISSQNRVSFIFLNDVETVESNRDFIAETFSVGF
notes: also called 21 kD protein
With B2, in assay [2], the binding result is “no binding”.
